Test results as given in patent US20080193973A1, “Bacillus Subtilis Strain and its Use in Preparing Pharmaceuticals for Treating Thrombosis” (CHENGDU DI'AO JIUHONG PHARMACEUTICAL, priority 2005, published 2008).
Marks after values point to notes of the source that are not given here.

Tests used:
[1] = test system: carotid artery thrombosis in rats; assay: carotid artery thrombosis test in rats (direct current stimulation, thrombus formation time); assay type: in vivo, SD rats
Experimental: Experimental Apparatus: Experimental Intracorporeal Thrombosis Surveyor BT87-3, developed by the cardiovascular research department of Baotou Medical University of China.
The carotid artery of test rats were separated 1 hour after the last intragastric administration or 15 minutes after intravenous injection according to the method prescribed in existing literature. Being stimulated continually with direct current (2 mA) for 7 minutes, the injuries of endarterium of carotid artery formed thrombosis gradually in test rats. The experimental apparatus would give an automatic alarm and record the time of thrombus formation when the blood vessels were blocked.

[2] = weight and overt toxicity of test rats during 7 days of administration
Experimental: Experimental Animal: 84 male SD rats weighing 250 to 320 g, purchased from the Animal Center of Henan Medical University of China.
Eighty-four male SD rats were randomly assigned to seven experimental groups (12 rats each group) according to their body weight. The freeze-dried powder of nattokinase and positive drug aspirin were given to test groups and the control group was administered with 5% NaHCO3, by intragastric administration according to the dosage of 0.5 ml/100 g each day for 7 continuous days. The positive drug staphylokinase was given at the 7th day by intravenous injection.

[3] = enzyme (nattokinase) activity of fermentation broth or dried crude product; assay type: biochemical
Excerpt: Although many kinds of fermentation techniques have been reported in existing literatures related to nattokinase from Bacillus subtilis, but the majority of the publicized strains have lower enzyme producing ability. On the other hand, other literatures describes some fermentation products from Bacillus subtilis that have higher enzyme producing ability, but it is difficult to evaluate the abilities of these publicized enzymes for the uncertainties of measuring conditions. The strain of Bacillus subtilis of the invention was fermented under the condition of temperature 30 to 40 degree C. and with the speed of 180 to 220 rpm for shaking bed, and the peak of enzyme production was obtained next day with enzyme activity of 1600 IU/ml and could be increased to 1697 IU/ml under optimized conditions. The enzyme activity of dried crude product could reach to 5000-10000 IU/g in solid fermentation of 10 kg supplies. […] Therefore, it has a very high industrial application value. So we think that the strain of Bacillus subtilis (No. Diao 1502) is a newly developed, different one in comparison with any Bacillus subtilis producing nattokinase reported in existing literatures.

[4] = temperature below 56 degree C. for 30 10 minutes; cited from earlier work
mice = assay: acute toxicity test by intragastric administration in mice; assay type: in vivo
[5] = preliminary test of activity of nattokinase prepared by 5% NaHCO3 at room temperature; assay type: physicochemical; conditions: prepared by 5% NaHCO3, room temperature for 4 days
Excerpt: Basis of Preparation: It has been reported that the nattokinase-like drugs are stable at pH values from 6.0 to 12.0 and unstable when to the PH value is below 5.0. Generally, the pH values of digestive tract are ranged from 0.9 to 1.5 in stomach, 6.0 to 6.8 in small intestine and 6.5 to 7.5 in colon. Therefore, the direct intragastric administration of drug containing nattokinase prepared with common solution adjuvant is unstable and easy to breakdown.

[6] = in vivo, po; cited from earlier work

In the case of `CC(=O)Oc1ccccc1C(=O)O` [Aspirin], the “Thrombus formation time, mean value” ([1]; aspirin 40 mg/kg/day intragastric for 7 days, 1 hour after last administration) is reported as 1379** second, the “Weight of test rats after 7 days of administration” value ([2]; aspirin 40 mg/kg/day intragastric) is reported as 316 ± 20 and the “Weight of test rats before administration” value ([2]; aspirin group (40 mg/kg/day intragastric)) is reported as 296 ± 15.

B1: nattokinase of the invention: fibrinolysin produced by Bacillus subtilis Diao 1502; crude drug, luteous water-soluble powder, batch No. 20040617 (protein, UniProt P35835 107-381, looked up)
Subtilisin NAT: AQSVPYGISQIKAPALHSQGYTGSNVKVAVIDSGIDSSHPDLNVRGGASFVPSETNPYQDGSSHGTHVAGTIAALNNSIGVLGVAPSASLYAVKVLDSTGSGQYSWIINGIEWAISNNMDVINMSLGGPTGSTALKTVVDKAVSSGIVVAAAAGNEGSSGSTSTVGYPAKYPSTIAVGAVNSSNQRASFSSVGSELDVMAPGVSIQSTLPGGTYGAYNGTSMATPHVAGAAALILSKHPTWTNAQVRDRLESTATYLGNSFYYGKGLINVQAAAQ
In the case of B1, the “Carotid artery thrombosis time compared with positive Aspirin (in words)” value ([1]; groups of different dosages) is reported as “no significant difference”, the “Thrombus formation time, mean value” ([1]; high dosage 100 mg/kg in 5% NaHCO3, intragastric for 7 days) is reported as 1309** second and the “Effect on carotid artery thrombosis time compared with negative control (in words)” value ([1]; listed as NK prepared by 5% NaHCO3) is reported as “apparent antithrombotic effects”. The “Effect on carotid artery thrombosis time compared with negative control (in words)” value ([1]; listed as freeze dried powder of nattokinase) was “prolonged significantly”, the “Thrombus formation time, mean value” ([1]; low dosage 4 mg/kg in 5% NaHCO3, intragastric for 7 days) was 1237* second and the “Thrombus formation time, mean value” ([1]; middle dosage 20 mg/kg in 5% NaHCO3, intragastric for 7 days) was 1287* second. For the same molecule, the “Enzyme activity of fermentation broth” value ([3]; after optimization of fermentation condition) was 1697 IU/ml, the “Enzyme activity of fermentation broth” value ([3]; liquid fermentation, before optimization) was 1600 IU/ml and the “Enzyme activity of dried crude product” value ([3]; solid fermentation of 10 kg class, after drying) was 5000-10000 IU/g. The “Activity after incubation (in words)” value [4] was “basically unchanged”, the LD50 (mice) was “higher than 6.0 g/kg” and the “Activity after storage (in words)” value [5] was “no decrease in activity”. For the same molecule, the “Toxicity in rats (in words)” value ([2]; 7-day's intragastric administration, prepared with 5% NaHCO3) was “no apparent toxicity”.

B2: Nattokinase (NK): serine protease extracted from the traditional Japanese food Natto, 275 amino acids (background literature) (protein, UniProt P35835 107-381, looked up)
Subtilisin NAT: B1 Subtilisin NAT
For B2, the “Time of peak value of fibrinolytic activity after taking the medicine” value [6] is given as 4 h and the “Time till which certain activity was maintained” value [6] is given as 8 h.
